The source of these data is the supplement of paper PMC11246515.

± gives the standard deviation of the averaged measurements.

The series can be described thus: total protein half-life in vivo (active degradation + dilution); higher = more stable protein.
[1] abbreviates: E. coli NCM3722 delta-clpP delta-lon delta-hslV, growth: N-lim chemostat, doubling time 6 h.
[2] abbreviates: E. coli NCM3722 delta-clpP, growth: N-lim chemostat, doubling time 6 h.
Setting [3] is: E. coli NCM3722 delta-hslV, growth: N-lim chemostat, doubling time 6 h.
Where [4] appears, read: E. coli NCM3722 delta-lon, growth: N-lim chemostat, doubling time 6 h.
Setting [5] is: E. coli NCM3722 delta-smpB, growth: N-lim chemostat, doubling time 6 h.
The mark [6] stands for this setting: wild type E. coli NCM3722, growth: C-lim chemostat, doubling time 6 h.
[7] abbreviates: wild type E. coli NCM3722, growth: C-lim chemostat, doubling time 12 h.
The mark [8] stands for this setting: wild type E. coli NCM3722, growth: N-lim chemostat, doubling time 6 h.
The mark [9] stands for this setting: wild type E. coli NCM3722, growth: N-lim chemostat, doubling time 12 h.
The mark [10] stands for this setting: wild type E. coli NCM3722, growth: P-lim chemostat, doubling time 6 h.
Where [11] appears, read: wild type E. coli NCM3722, growth: P-lim chemostat, doubling time 12 h.
[12] abbreviates: wild type E. coli NCM3722, growth: C-lim chemostat, doubling time 3 h.

Consider “MSYTLPSLPYAYDALEPHFDKQTMEIHHTKHHQTYVNNANAALESLPEFANLPVEELITKLDQLPADKKTVLRNNAGGHANHSLFWKGLKKGTTLQGDLKAAIERDFGSVDNFKAEFEKAAASRFGSGWAWLVLKGDKLAVVSTANQDSPLMGEAISGASGFPIMGLDVWEHAYYLKFQNRRPDYIKEFWNVVNWDEAAARFAAKK”, for which the “total protein half-life in vivo” value is, setting by setting: under setting [1], 6.4 ± 0.78 h; under setting [2], 5.61 ± 0.3 h; under setting [3], 5.5 ± 0.16 h; under setting [4], 7.05 ± 1.2 h; under setting [5], 4.96 ± 1.2 h; under setting [6], 5.11 ± 0.91 h. The “total protein half-life in vivo” value was determined as 11.3 ± 1.7 h under setting [7]; 4.87 ± 1.1 h under setting [8]; 9.5 ± 0.12 h under setting [9]; 5.31 ± 0.55 h under setting [10]; 11.3 ± 0.15 h under setting [11].
“MPRLLTKRGCWITLAAAPFLLFLAAWGADKLWPLPLHEVNPARVVVAQDGTPLWRFADADGIWRYPVTIEDVSPRYLEALINYEDRWFWKHPGVNPFSVARAAWQDLTSGRVISGGSTLTMQVARLLDPHPKTFGGKIRQLWRALQLEWHLSKREILTLYLNRAPFGGTLQGIGAASWAYLGKSPANLSYSEAAMLAVLPQAPSRLRPDRWPERAEAARNKVLERMAVQGVWSREQVKESREEPIWLAPRQMPQLAPLFSRMMLGKSKSDKITTTLDAGLQRRLEELAQNWKGRLPPRSSLAMIVVDHTDMRVRGWVGSVDLNDDSRFGHVDMVNSIRSPGSVLKPFVYGLALDEGLIHPASLLQDVPRRTGDYRPGNFDSGFHGPISMSEALVRSLNLPAVQVLEAYGPKRFAAKLRNVGLPLYLPNGAAPNLSLILGGAGAKLEDMAAAYTAFARHGKAGKLRLQPDDPLLERPLMSSGAAWIIRRIMADEAQPLPDSALPRVAPLAWKTGTSYGYRDAWAIGVNARYVIGIWTGRPDGTPVVGQFGFASAVPLLNQVNNILLSRSANLPEDPRPNSVTRGVICWPGGQSLPEGDGNCRRRLATWLLDGSQPPTLLLPEQEGINGIRFPIWLDENGKRVAADCPQARQEMINVWPLPLEPWLPASERRAVRLPPASTSCPPYGHDAQLPLQLTGVRDGAIIKRLPGAAEATLPLQSSGGAGERWWFLNGEPLTERGRNVTLHLTDKGDYQLLVMDDVGQIATVKFVMQ”: the “total protein half-life in vivo” value by setting is: under setting [1], 5.44 h; under setting [2], 6.31 ± 1.1 h; under setting [3], 5.74 ± 0.091 h; under setting [4], 5.64 ± 0.55 h; under setting [5], 4.87 ± 1.3 h; under setting [12], 3.04 h. In addition, the “total protein half-life in vivo” value under setting [7] was 11.2 h; the “total protein half-life in vivo” value under setting [8] is 5.98 h; the “total protein half-life in vivo” value under setting [9] was 13.92 ± 0.086 h; the “total protein half-life in vivo” value under setting [10] was 6.15 ± 2 h; the “total protein half-life in vivo” value under setting [11] is 9.01 ± 4 h.
“MALPRITQKEMTEREQRELKTLLDRARIAHGRVLTNSETNSIKKDYIDKLMVEREAEAKKARQLKKKQAYKPDPEASFSWSANTSTRGRR”: the “total protein half-life in vivo” value is, setting by setting: under setting [1], 5.58 ± 1 h; under setting [3], 1.79 ± 0.25 h; under setting [4], 1.63 h; under setting [5], 2.02 h; under setting [6], 1.65 h; under setting [7], 2.08 h. Under setting [9], the “total protein half-life in vivo” value worked out at 2.87 ± 0.66 h.
Regarding “MHVFDNNGIELKAECSIGEEDGVYGLILESWGPGDRNKDYNIALDYIIERLVDSGVSQVVVYLASSSVRKHMHSLDERKIHPGEYFTLIGNSPRDIRLKMCGYQAYFSRTGRKEIPSGNRTKRILINVPGIYSDSFWASIIRGELSELSQPTDDESLLNMRVSKLIKKTLSQPEGSRKPVEVERLQKVYVRDPMVKAWILQQSKGICENCGKNAPFYLNDGNPYLEVHHVIPLSSGGADTTDNCVALCPNCHRELHYSKNAKELIEMLYVNINRLQK”, the “total protein half-life in vivo” value was determined as 5.51 h under setting [1]; 4.2 h under setting [3]; 5.87 h under setting [4]; 4.87 h under setting [5]; 4.8 ± 0.71 h under setting [8]; 8.5 ± 1.1 h under setting [9]. Under setting [11], the “total protein half-life in vivo” value worked out at 10.2 h.
For “MAQLYFYYSAMNAGKSTALLQSSYNYQERGMRTVVYTAEIDDRFGAGKVSSRIGLSSPAKLFNQNSSLFDEIRAEHEQQAIHCVLVDECQFLTRQQVYELSEVVDQLDIPVLCYGLRTDFRGELFIGSQYLLAWSDKLVELKTICFCGRKASMVLRLDQAGRPYNEGEQVVIGGNERYVSVCRKHYKEALQVDSLTAIQERHRHD”, the “total protein half-life in vivo” value turned out to be 4.73 ± 0.29 h under setting [1]; 4.06 ± 0.5 h under setting [2]; 3.97 ± 0.089 h under setting [3]; 5.17 ± 1.3 h under setting [4]; 3.82 ± 0.42 h under setting [5]; 2.47 ± 0.051 h under setting [12]. Further, the “total protein half-life in vivo” value runs as follows: under setting [6], 4.98 ± 0.062 h; under setting [7], 10.3 ± 0.56 h; under setting [8], 3.86 ± 0.31 h; under setting [9], 6.8 ± 0.12 h; under setting [10], 5.92 ± 0.58 h; under setting [11], 11.7 ± 0.69 h.
“MSGFFQRLFGKDNKPAIARGPLGLHLNSGFTLDTLAFRLLEDELLIALPGEEFTVAAVSHIDLGGGSQIFRYYTSGDEFLQINTTGGEDIDDIDDIKLFVYEESYGISKESHWREAINAKAMGAMTLNWQEKRWQRFFNSEEPGNIEPVYMLEKVENQNHAKWEVHNFTMGYQRQVTEDTYEYLLLNGEESFNDLGEPEWLFSRALGVDIPLTSLHIIG”: the “total protein half-life in vivo” value was 4.45 h under setting [1]; 6.47 ± 1 h under setting [3]; above 8 h under setting [4]; 3.22 h under setting [12]; 12.2 h under setting [7]; 5.26 h under setting [8]. For the same sequence, the “total protein half-life in vivo” value under setting [10] stood at 6.38 h.
For “MPLIIVVAGIALLLLLTIKIKLNTFVSLIIVSIAVAIASGMDLSKVVTSVESGLGGTLGHIGLIFGFGVMLGRLLADAGGAQRIALTMLNYFGKNKLDWAVVCSAFIVGIALFFEVGLILLVPILFAIAREAKISPMFMCVPMLSGLLVAHGFLPPHPGPTVIAREYGADVGLVLIYGIIVGIPTFILCGPVLNKFCQRIIPDAFKKEGNIASLGATRRFSESEMPGFGISFLTAMLPVILMAVVTIIQMTHAKSAADSGLFYNVILFLGNSTIAMLISLLFAIYTMGLGRGKTIPDLMDSCGKAIAGIAGLLLIIGGGGAFKQVLIDSGVGQYISTLVSGMDINPILMAWGVAAFLRICLGSATVAAISTAGLVIPLLAVHPNTNLALITLATGAGSCICSHVNDASFWMIKDFFGLTTKETLLSWTLMSTLLSISGLIFILLASLVL”, the “total protein half-life in vivo” value reads like this: under setting [5], 6.77 h; under setting [12], 3.22 h.
With “MNTTTPMGMLQQPRPFFMIFFVELWERFGYYGVQGVLAVFFVKQLGFSQEQAFVTFGAFAALVYGLISIGGYVGDHLLGTKRTIVLGALVLAIGYFMTGMSLLKPDLIFIALGTIAVGNGLFKANPASLLSKCYPPKDPRLDGAFTLFYMSINIGSLIALSLAPVIADRFGYSVTYNLCGAGLIIALLVYIACRGMVKDIGSEPDFRPMSFSKLLYVLLGSVVMIFVCAWLMHNVEVANLVLIVLSIVVTIIFFRQAFKLDKTGRNKMFVAFVLMLEAVVFYILYAQMPTSLNFFAINNVHHEILGFSINPVSFQALNPFWVVLASPILAGIYTHLGNKGKDLSMPMKFTLGMFMCSLGFLTAAAAGMWFADAQGLTSPWFIVLVYLFQSLGELFISALGLAMIAALVPQHLMGFILGMWFLTQAAAFLLGGYVATFTAVPDNITDPLETLPVYTNVFGKIGLVTLGVAVVMLLMVPWLKRMIATPESH”, the “total protein half-life in vivo” value is 6.66 ± 0.32 h under setting [1]; 6.8 ± 0.1 h under setting [2]; 5.78 ± 0.79 h under setting [4]; above 8 h under setting [5]; above 4 h under setting [12]; 6.12 h under setting [9]. Besides, the “total protein half-life in vivo” value under setting [10] was found to be 6.47 h and the “total protein half-life in vivo” value under setting [11] is 11.1 ± 1.4 h.
